Experimental data taken from patent US20190201479A1.

Biological target: IdsE of strain BB2000 with amino acids 147-169 (variable region) replaced by the equivalent sequence of IdsE from strain HI4320 (Proteus mirabilis strain BB2000; Proteus mirabilis strain HI4320)
Assay: cell-based or functional assay

IdsD from Proteus mirabilis strain BB2000 (variable region from BB2000)
fold reduction in colony expansion of the 1:1 coswarm (donor CCS06 with CCS05-derived recipient producing DVR-BB and EVR-HI) against the monoculture swarm of the recipient: 3.12 fold | fold reduction in colony expansion of the 1:1 coswarm (donor CCS06 with CCS05-derived recipient producing DVR-HI and EVR-HI) against the monoculture swarm of the recipient: 3.35 fold
